{
  "source": "patent US20190077863A1",
  "about": "(AERPIO PHARMACEUTICALS, published 2019)",
  "binders": {"B1": {"name": "murine monoclonal antibody R15E6 (antibody, V domains shown)", "VH": "EVQLVETGGGLVQPKGSMKLSCAASGFTFNANAMNWIRQAPGKGLEWVARIRTKSNNYATYYAGSVKDRFTISRDDAQNMLYLQMNDLKTEDTAMYYCVRDYYGSSAWITYWGQGTLVTVSA", "VL": "DIVMTQSHKFMSTSVGDRVSITCKASQHVGTAVAWYQQKPDQSPKQLIYWASTRHTGVPDRFTGSGSGTDFTLTISNVQSEDLADYFCQQYSSYPFTFGSGTKLEIK", "notes": "Murine monoclonal antibody of hybridoma ATCC PTA-7580, 150 kDa; also called Parental; parental antibody"}},
  "key": {"[1]": {"biological_target": "T1, Human VE-PTP (HPTP-β) containing first eight FN3 repeats with C-terminal His6 tag (Human ½ VE-PTP ECD) (human, UniProt P23467 23-820)", "T1 construct": "Produced in HEK293 cells and purified by the His tag; it was not cut off; also called Human Beta ½ ECD", "T1 sequence": "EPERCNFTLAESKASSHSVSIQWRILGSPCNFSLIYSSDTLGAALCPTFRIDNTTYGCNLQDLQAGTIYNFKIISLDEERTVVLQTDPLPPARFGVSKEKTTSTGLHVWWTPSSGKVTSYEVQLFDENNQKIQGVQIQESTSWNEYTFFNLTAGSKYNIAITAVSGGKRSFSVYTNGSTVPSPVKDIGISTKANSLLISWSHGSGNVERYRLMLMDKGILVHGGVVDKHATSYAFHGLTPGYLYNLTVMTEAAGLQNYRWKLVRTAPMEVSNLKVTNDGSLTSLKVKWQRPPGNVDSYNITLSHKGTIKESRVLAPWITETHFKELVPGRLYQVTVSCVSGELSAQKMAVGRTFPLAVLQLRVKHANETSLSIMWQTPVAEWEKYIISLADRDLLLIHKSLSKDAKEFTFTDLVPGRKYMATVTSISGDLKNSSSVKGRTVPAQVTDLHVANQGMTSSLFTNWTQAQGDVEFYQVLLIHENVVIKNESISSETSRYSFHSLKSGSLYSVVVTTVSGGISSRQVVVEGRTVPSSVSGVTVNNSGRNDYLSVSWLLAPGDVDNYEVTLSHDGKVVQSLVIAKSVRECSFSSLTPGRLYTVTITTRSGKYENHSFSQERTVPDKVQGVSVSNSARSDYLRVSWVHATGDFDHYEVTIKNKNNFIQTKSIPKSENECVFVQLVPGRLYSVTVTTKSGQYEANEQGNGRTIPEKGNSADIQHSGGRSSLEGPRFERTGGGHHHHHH", "assay": "ELISA, antigen coated at 1 µg/mL, antibody 1 µg/well", "description": "(§1) HPTP-β, cyno PTP-β, and HPTP-η proteins were coated onto ELISA plates in coating buffer (pH 9.4). Each protein was prepared as a 1 μg/mL protein stock in 50 mM carbonate-bicarbonate. The coated proteins were aliquoted at a volume of 100 μL/well into sterile, clear, polystyrene, flat bottom 96-well plates. The plates were incubated overnight at 4° C. After overnight incubation, the plates were washed 3× with 200 μL/well of 1×PBS-T (PBS with 0.05% Tween 20). The immunizing protein was human VE-PTP (HPTP-β). The plates were then blocked with 200 μL/well of 5% blotting grade blocker non-fat dry milk in PBS-T and incubated for 1 hr at room temperature.\n(§2) Primary antibody samples were prepared for the humanized variants and the negative control, anti-hCD20-hIgG4S228P, using 1 μg/well in 5% blotting grade blocker non-fat dry milk in PBS. Samples were tested in triplicates. The Fab antibody fragments were treated as the IgG antibodies. The plates were then washed 3× with PBS-T and 100 μL of primary antibody preparation was added in each well. The plates were then incubated for 1 hr at room temperature.\n(§3) Then, […] Ultra TMB-ELISA was added in each well, and the plate was allowed to develop for 5 min at room temperature. After 5 min, 50 μL of 2 M sulfuric acid was added to each well to stop the reaction. The plates were then analyzed on a plate reader at an absorbance wavelength of 450 nm."}, "[2]": {"biological_target": "T2, VEGFR2 (human, UniProt P35968 20-1356)", "T2 construct": "Named only as 'VEGFR2; (R2/T2)' in the immunoprecipitation experiment with HUVECs", "T2 sequence (P35968 20-1356 limits assumed)": "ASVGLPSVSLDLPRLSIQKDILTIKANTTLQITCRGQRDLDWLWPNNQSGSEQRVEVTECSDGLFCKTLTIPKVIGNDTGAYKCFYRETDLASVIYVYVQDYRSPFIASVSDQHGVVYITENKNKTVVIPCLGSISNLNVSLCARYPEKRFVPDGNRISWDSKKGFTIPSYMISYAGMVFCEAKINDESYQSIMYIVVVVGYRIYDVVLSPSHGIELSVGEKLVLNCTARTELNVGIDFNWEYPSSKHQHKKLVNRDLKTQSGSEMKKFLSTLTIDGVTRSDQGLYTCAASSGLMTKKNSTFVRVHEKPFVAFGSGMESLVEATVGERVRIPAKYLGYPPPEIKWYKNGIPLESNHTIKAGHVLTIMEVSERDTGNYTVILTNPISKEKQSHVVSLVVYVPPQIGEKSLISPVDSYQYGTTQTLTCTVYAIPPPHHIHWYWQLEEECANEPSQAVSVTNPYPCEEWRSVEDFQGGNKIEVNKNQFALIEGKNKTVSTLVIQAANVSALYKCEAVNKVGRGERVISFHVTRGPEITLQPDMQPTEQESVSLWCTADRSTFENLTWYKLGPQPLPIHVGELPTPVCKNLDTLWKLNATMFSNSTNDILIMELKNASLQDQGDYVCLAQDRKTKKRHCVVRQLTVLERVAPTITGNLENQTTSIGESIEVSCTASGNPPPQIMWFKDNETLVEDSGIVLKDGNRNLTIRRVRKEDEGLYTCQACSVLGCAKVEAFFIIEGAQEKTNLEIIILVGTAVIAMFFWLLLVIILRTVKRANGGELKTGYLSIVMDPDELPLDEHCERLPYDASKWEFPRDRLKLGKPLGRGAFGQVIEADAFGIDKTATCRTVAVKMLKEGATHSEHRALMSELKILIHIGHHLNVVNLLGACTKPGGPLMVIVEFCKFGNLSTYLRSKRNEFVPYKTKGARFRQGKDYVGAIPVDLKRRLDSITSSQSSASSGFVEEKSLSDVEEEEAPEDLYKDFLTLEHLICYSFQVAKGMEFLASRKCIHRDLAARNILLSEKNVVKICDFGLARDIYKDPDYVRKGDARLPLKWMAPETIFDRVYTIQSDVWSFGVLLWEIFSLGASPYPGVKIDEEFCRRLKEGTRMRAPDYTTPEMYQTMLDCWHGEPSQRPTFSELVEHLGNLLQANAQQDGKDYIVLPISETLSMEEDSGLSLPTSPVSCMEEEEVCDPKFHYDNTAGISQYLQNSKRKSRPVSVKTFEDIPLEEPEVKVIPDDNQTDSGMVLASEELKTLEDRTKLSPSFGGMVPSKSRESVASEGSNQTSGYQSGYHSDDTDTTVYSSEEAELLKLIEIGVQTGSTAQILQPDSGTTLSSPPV", "assay": "immunoprecipitation western blot, HUVECs"}, "[3]": {"biological_target": "T3, Tie2 (human, UniProt Q02763 23-1124)", "T3 construct": "Named only as 'Tie2 (R2/T2)' in the immunoprecipitation experiment with HUVECs; also called T2", "T3 sequence (Q02763 23-1124 limits assumed)": "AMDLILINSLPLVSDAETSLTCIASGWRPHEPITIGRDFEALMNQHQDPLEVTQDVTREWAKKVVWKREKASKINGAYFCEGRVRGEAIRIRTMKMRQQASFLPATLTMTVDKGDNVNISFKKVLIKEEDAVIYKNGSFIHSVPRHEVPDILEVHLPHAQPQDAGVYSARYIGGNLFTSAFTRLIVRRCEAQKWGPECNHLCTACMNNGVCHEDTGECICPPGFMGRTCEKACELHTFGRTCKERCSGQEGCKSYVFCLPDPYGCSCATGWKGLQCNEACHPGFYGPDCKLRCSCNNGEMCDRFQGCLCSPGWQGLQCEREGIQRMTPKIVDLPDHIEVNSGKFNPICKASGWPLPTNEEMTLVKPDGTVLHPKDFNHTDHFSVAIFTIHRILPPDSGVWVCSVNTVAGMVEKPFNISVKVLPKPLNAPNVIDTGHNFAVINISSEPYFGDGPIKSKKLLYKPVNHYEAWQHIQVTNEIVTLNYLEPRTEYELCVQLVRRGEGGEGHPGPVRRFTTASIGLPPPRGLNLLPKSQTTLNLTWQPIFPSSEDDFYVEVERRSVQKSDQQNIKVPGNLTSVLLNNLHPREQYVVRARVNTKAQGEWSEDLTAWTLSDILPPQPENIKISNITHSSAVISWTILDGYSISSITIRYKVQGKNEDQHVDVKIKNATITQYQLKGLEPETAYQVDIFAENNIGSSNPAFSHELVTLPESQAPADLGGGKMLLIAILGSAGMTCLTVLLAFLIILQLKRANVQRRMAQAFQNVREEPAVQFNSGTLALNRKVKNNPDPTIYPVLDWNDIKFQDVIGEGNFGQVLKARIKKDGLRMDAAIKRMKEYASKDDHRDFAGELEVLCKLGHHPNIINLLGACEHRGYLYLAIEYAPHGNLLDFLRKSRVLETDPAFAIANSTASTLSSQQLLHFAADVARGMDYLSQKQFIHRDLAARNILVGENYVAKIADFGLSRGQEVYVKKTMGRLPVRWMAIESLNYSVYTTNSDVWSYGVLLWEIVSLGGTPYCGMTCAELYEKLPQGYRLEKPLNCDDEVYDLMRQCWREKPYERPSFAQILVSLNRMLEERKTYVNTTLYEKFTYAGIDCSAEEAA", "assay": "immunoprecipitation western blot, HUVECs"}, "[4]": {"biological_target": "T4, Human HPTP-η with C-terminal His10 tag (Human HPTP-η ECD) (human, UniProt Q12913 36-975)", "T4 construct": "Produced in HEK293 cells; it was not cut off; also called Human PTPη; human PTP-η", "T4 sequence": "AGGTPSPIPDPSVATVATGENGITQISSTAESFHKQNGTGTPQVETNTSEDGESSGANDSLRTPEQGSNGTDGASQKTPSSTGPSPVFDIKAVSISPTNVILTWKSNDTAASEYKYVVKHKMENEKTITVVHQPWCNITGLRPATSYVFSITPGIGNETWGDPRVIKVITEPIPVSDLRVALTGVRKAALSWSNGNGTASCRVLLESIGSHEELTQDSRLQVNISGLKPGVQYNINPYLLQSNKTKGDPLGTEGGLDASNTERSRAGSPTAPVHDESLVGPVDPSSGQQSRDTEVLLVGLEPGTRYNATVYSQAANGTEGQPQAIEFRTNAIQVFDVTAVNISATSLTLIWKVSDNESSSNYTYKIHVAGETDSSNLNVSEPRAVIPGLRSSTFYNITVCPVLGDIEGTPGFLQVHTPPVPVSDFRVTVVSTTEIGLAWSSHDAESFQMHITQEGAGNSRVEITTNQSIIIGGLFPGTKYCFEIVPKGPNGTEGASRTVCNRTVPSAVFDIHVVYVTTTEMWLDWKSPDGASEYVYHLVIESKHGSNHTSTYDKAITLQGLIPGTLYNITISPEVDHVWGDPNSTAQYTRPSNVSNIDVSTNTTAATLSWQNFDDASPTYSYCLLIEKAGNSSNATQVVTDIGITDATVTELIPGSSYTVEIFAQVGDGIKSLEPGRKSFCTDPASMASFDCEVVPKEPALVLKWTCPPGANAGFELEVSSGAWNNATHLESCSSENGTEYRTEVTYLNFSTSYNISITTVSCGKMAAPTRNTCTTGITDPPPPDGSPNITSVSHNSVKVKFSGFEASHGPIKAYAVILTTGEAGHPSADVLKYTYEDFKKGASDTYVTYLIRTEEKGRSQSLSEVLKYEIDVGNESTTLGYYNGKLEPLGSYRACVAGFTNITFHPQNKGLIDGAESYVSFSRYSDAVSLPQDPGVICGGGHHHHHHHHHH", "assay": "ELISA, coated antigen", "description": "as §1, §2, §3"}, "[5]": {"biological_target": "T5, Cynomolgus VE-PTP (Cyno PTP-β) containing first eight FN3 repeats with C-terminal His10 tag (Cyno Beta ½ … (cynomolgus, UniProt P23467 25-817 (human entry)))", "T5 construct": "Produced in HEK293 cells; it was not cut off; also called Cyno VE-PTP", "T5 chain": "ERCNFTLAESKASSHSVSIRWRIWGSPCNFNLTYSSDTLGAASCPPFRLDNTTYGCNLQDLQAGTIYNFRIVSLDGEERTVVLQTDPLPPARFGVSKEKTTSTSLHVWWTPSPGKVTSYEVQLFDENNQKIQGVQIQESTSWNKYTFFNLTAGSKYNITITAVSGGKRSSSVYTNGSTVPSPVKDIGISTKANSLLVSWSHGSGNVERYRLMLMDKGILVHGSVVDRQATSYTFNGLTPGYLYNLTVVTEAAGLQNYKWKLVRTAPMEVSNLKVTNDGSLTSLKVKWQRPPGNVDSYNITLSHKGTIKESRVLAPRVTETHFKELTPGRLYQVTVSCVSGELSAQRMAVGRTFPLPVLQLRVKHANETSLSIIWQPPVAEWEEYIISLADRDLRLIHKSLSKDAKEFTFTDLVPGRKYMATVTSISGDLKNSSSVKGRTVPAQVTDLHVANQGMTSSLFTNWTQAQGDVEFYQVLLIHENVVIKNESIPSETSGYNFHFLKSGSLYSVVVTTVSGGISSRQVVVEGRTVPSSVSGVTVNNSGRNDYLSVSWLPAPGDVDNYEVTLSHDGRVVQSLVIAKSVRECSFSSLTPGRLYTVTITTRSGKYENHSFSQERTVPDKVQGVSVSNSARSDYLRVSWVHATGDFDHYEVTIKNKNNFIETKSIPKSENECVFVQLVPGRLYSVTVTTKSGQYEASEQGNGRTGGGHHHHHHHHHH", "assay": "ELISA, coated antigen", "description": "as §1, §2, §3"}},
  "data": [
    {"binder": "B1", "values": [
      {"measurement": "ELISA value (absorbance at 450 nm)", "setting": "[1]", "result": 2.43},
      {"measurement": "binding result", "setting": "[2]", "result": "no binding"},
      {"measurement": "binding result", "setting": "[3]", "result": "no binding"},
      {"measurement": "binding result", "setting": "[4]", "result": "no binding (tested: <=0.2; 1 µg/well)"},
      {"measurement": "binding result", "setting": "[5]", "result": "no binding (tested: <=0.2; 1 µg/well)"}
    ]}
  ]
}
